Test results: PMC6235870

Key:
[1] = target: C-terminal domain (CTD) of major ampullate spidroin 1 (MaSp1) from Euprosthenops australis, wild type (Euprosthenops australis); assay: far-UV CD equilibrium chemical denaturation at varying protein concentration; urea 0-10 M, CD at 222 nm, 5-30 µM CTD, 50 mM phosphate pH 7.0, ionic strength 200 mM (KCl), 298 K, reducing (1 mM DTE); three-state model N2-I2-D; dimeric intermediate to denatured monomers
[2] = target: CTD of MaSp1 from E. australis modified at C82 with AttoOxa11 (Euprosthenops australis); assay: fluorescence chasing experiment (dissociation kinetics); 60, 120 and 180 nM CTD-AttoOxa11 dimers chased with 20 µM chemically reduced wild-type CTD, manual mixing, 298 K, emission at 677 nm; bi-exponential fit; dimer to monomers
[3] = target: CTD of MaSp1 from E. australis modified at C82 with AttoOxa11 (Euprosthenops australis); assay: stopped-flow fluorescence spectroscopy (refolding and dimerisation of denatured monomers); sub-µM CTD-AttoOxa11 in 8 M urea mixed 1:10 into 50 mM phosphate pH 7.0, ionic strength 200 mM (KCl), 298 K; denatured monomers to dimeric intermediate I2

Row | stoichiometry N [1] | koff [2] | observed time constant of dissociation, first exponential, 60 nM [2] | observed time constant of dissociation, first exponential, 120 nM [2] | observed time constant of dissociation, first exponential, 180 nM [2] | observed time constant of dissociation, second exponential, 60 nM [2] | observed time constant of dissociation, second exponential, 120 nM [2] | observed time constant of dissociation, second exponential, 180 nM [2] | time constant of dissociation (mean weighted by amplitudes) [2] | kon [3] | Substance
1 | 2 | – | – | – | – | – | – | – | – | – | C-terminal domain (CTD) of major ampullate spidroin 1 (MaSp1) from Euprosthenops australis, wild type (domain or fragment)
2 | – | 0.008 s⁻¹ | 51 s | 37 s | 34 s | 208 s | 186 s | 194 s | 128 s | 5.2e+07 M⁻¹ s⁻¹ | CTD of MaSp1 from E. australis modified at C82 with AttoOxa11 (domain or fragment)
